Consider one molecule from patent US20090305963A1, “Lipocalin 2 for the Treatment, Prevention, and Management of Cancer Metastasis, Angiogenesis, and Fibrosis” (priority 2005, published 2009).

For test [1], the system named is 4T1 cells injected subcutaneously. In words: In vivo assay for primary tumor growth and pulmonary metastases. Also on record: species or system Balb/c mice. As for the experimental part:
FIG. 4A is a graph showing the effect of lipocalin 2 on 4T1 primary tumor growth. 4T1 clones (EV, R, and RL) were suspended in PBS and injected subcutaneously in the backs of Balb/c mice. Primary tumor size was calculated based upon measurements at 1, 2, and 3 weeks. […] FIGS. 4E-F show graphs depicting the lung weight (FIG. 4E) and the number of metastatic nodules on the lung surface (FIG. 4F).
10^7 4T1-(EV, R, and RL) cells were injected subcutaneously in Balb/c mice (Asai et al., Int. J. Cancer. 76:418-422, 1998). Though this model is not the standard orthotopic model used, we have used it extensively in our laboratory to study metastases in lung. Primary tumor volume (V)=a·b·b/2, where a represents the […] tumor diameter. After 3 weeks, lung weights and the number of metastatic nodules on the lung surface were evaluated.

The subject of another test is E-cadherin. In words: EMT phenotype, E-cadherin and vimentin protein in 4T1 clones (microscopy, western blot). It is filed as cell-based, mouse. Conditions: RL cells compared to R cells. The text has this: (§1) Cells were stained as described previously (Mammoto et al., Cancer Lett. 184:165-170, 2002) and images acquired with a Delta Vision system (Applied Precision, Issaquah, Wash.) equipped with an Axiovert 100 microscope (Carl Zeiss MicroImaging Inc., Shelton, Conn.) and a Photometrics 300 series scientific-grade cooled CCD camera, reading 12-bit images, and using the 63/1.4 NA plan-Neofluar objective. For immunoprecipitation and immunoblotting, tissues were weighed, diced, soaked in ice cold RIPA buffer with 1 mM phenylmethylsulfonyl fluoride (PMSF), 1 μg/ml Aprotinin, 1 mM Na3VO4, 1 nM NaF, homogenized on ice, centrifuged at 10,000 g for 10 minutes at 4° C., and the supernatant fluid collected as total cell lysate. Cultured cells were washed, scraped, and solubilized in a lysis buffer containing 20 mM Tris-HCl pH 7.5, 150 mM NaCl, 0.5% Triton X-100, 1% aprotinin, and 1 mM PMSF. After 20 minutes on ice, the cells were pelleted by centrifugation and the supernatants were used as a cell lysate. Cell lysates or immunoprecipitated cell lysates were separated by PAGE (NuPAGE® gels; Invitrogen, Carlsbad, Calif.), followed by electroblotting onto a polyvinylidenedifluoride membrane (PVDF). Protein bands were detected using SuperSignal® West Pico Chemiluminescent Substrate (Pierce Chemical Co., Rockford, Ill.) (Hanai et al., J. Cell. Biol. 158:529-539, 2002).
To assess the effects of lipocalin 2 on ras-mediated transformation, we chose a syngeneic spontaneously metastasizing murine breast cancer model (4T1 cell line) and accelerated its metastatic potential by introduction of constitutively active mouse H-ras mutant A12 using retrovirus. […] We generated stable clones of 4T1-ras cells expressing lipocalin 2 (RL) by transfection of a lipocalin 2 expression plasmid (lipocalin 2-pcDNA3.1). […] (FIG. 2A, lower panel, and FIG. 2B). […] Expression of E-cadherin in RL cells was dependent on the dose of lipocalin 2-pcDNA3.1 expression vector (transiently introduced in a population of R cells), on a conditioned medium containing lipocalin 2 (FIGS. 2D-E), as well as on recombinant lipocalin 2 protein. R cells shown in FIG. 2D were seeded in a 6-well plate and transfected with lipocalin 2 by FuGene 6 at 40% confluency. After 48 hours, cells were trypsinized, respread on 6-well plate, and transfected again in the same conditions. After 72 hours, cells were harvested and analyzed by western blotting. EV cells in FIG. 2E were seeded in a 6-well plate with 1 ml/well containing 10% FCS with DMEM and 2 ml of CM was added at 10% confluency. After 72 hours, cells were harvested and analyzed by western blotting. CM is a mixture of media from 293T cells transfected with lipocalin 2 and from 293 cells transfected with empty vector (pcDNA3.1).
For orientation: A western blot detects proteins with antibodies after separation by electrophoresis.

Another test deals with 4T1 primary tumor. In words: Western blot of total cell lysate from 4T1 primary tumors. It is filed as in vivo, Balb/c mice.
Description: 4T1 clones (EV, R and RL) were suspended in PBS and injected subcutaneously in the backs of Balb/c mice. 3 weeks later, primary tumor tissue was dissected, homogenized and the supernatant fluid was collected as total cell lysate. Western blot of total cell lysate from each primary tumor for the antigen is shown. GAPDH serves as a loading control. The E-cadherin, vimentin and GAPDH data is from Hanai et al., J. Biol. Chem. 280:13641-13647 (2005).
as §1
To determine whether lipocalin 2 could affect expression of anti-angiogenic factors in vivo, we injected EV, R, or RL cells subcutaneously in the backs of Balb/c mice and dissected the primary tumors at 3 weeks post-inoculation. As shown above and in Hanai et al., supra, E-cadherin and vimentin protein expression varied reciprocally in the three tumor types. We assessed the expression of VEGF and thrombospondin-1 (TSP-1) by western blot in each tumor tissue.

A further test concerns AKT. In words: Western blot for phospho-AKT. It is filed as cell-based, mouse.
Description: FIGS. 14A-14B are western blots for phospho-AKT (pAKT) showing the downregulation of ras-induced AKT phosphorylation, but not IGF-1 induced AKT phosphorylation, by lipocalin 2. FIG. 14A is a western blot for pAKT showing the lysate from each 4T1 clone (EV, R and RL). FIG. 14B is a western blot for pAKT showing the lysate from EV or RL cells treated with or without IGF-1. GAPDH serves as a loading control.
as §1, with “Cultured cells were washed, scraped, and solubilized in a lysis buffer containing 20 mM Tris-HCl pH 7.5, 150 mM NaCl, 0.5% Triton X-100, 1% aprotinin, and 1 mM PMSF. After 20 minutes on ice, the cells were pelleted by centrifugation and the supernatants were used as a cell lysate. Cell lysates or immunoprecipitated cell lysates were separated by PAGE (NuPAGE® gels; Invitrogen, Carlsbad, Calif.), followed by electroblotting onto a polyvinylidenedifluoride membrane (PVDF).” left out

The test system of the next test is colon cancer cells. Conditions: ectopic expression of lipocalin 2; cited from earlier work.

B1: lipocalin 2: human lipocalin 2 cDNA (HA tagged) in pcDNA3.1, stably expressed in 4T1-ras cells (RL clone); iron-siderophore binding protein (protein, UniProt P80188 21-198, looked up)
Neutrophil …: QDSTSDLIPAPPLSKVPLQQNFQDNQFQGKWYVVGLAGNAILREDKDPQKMYATIYELKEDKSYNVTSVLFRKKKCDYWIRTFVPGCQPGEFTLGNIKSYPGLTSYLVRVVSTNYNQHAMVFFKKVSQNREYFKITLYGRTKELTSELKENFIRFSKSLGLPENHIVFPVPIDQCIDG
modifications: HA tag
For the molecule B1, in test [1] (R vs RL tumors, 1, 2 and 3 weeks post-inoculation), the primary tumor size entry was “Primary tumors of R cells were significantly larger than lipocalin 2 cells”. Besides, the “reduction of number of metastatic pulmonary nodules” value in test [1] (RL cells compared to R cells, 3 weeks after s.c. injection) is given as 80%. Also, the lung weight result in test [1] (RL compared to R cells, 3 weeks) is “lung weights were less”. For the same molecule, in the test with E-cadherin, the E-cadherin expression result was “re-expressed E-cadherin”, the cell morphology result is listed as “reverted to an epithelial morphology” and the vimentin expression entry is reported as “suppressed the expression of mesenchymal vimentin”. For the same molecule, in the test on 4T1 primary tumor (RL tumors vs R), the “E-cadherin in primary tumors” value is listed as “more E-cadherin” and the “vimentin in primary tumors” value is listed as “less vimentin”. The “TSP-1 protein in primary tumors” value in the test on 4T1 primary tumor (RL vs R and EV tumors, 3 weeks post-inoculation) was “returned in RL cells to the levels noted in EV cells”. Also, in the test with 4T1 primary tumor (RL vs R tumors, 3 weeks post-inoculation), the “ras-induced increase of VEGF protein in primary tumors” value was “completely abrogated”. Further, in the test with AKT (EV or RL cells with or without IGF-1), the “IGF-1-induced phosphorylation of AKT” value is recorded as “does not downregulate”. For the same molecule, the “ras-induced phosphorylation of AKT” value in the test on AKT (EV, R and RL clones) was “downregulates”. Also, in the test on colon cancer cells, the “invasiveness of colon cancer cells” value is recorded as “suppressed the invasiveness of colon cancer cells”.
